Test [1] addresses T1, 15N-13C-2D triply labeled MPER 27mer (HIV-1 (HxB2)).
T1 chain: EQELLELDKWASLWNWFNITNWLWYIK
The experiment in a line: NMR chemical shift perturbation and cross-saturation transfer.

Test [2] concerns the target T2, MPER peptide QQEKNEQELLELDKWASLWNWFNI (binding analysis in membrane environment) (HIV-1 HXB2).
T2 chain: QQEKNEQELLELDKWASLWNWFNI
Description: SPR. In general terms: Surface plasmon resonance follows binding to a sensor surface in real time, without labels.

In test [3] the target is T3, full-length MPER segment (peptide containing the C-helical MPER region) (HIV-1 HXB2, UniProt P04578).
T3 chain: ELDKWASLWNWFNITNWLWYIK
Description: SPR.

Test [4] concerns the target trimeric ADA strain HIV-1 envelope protein GP160 (HIV-1 subtype B, isolate ADA, UniProt Q6TAN8, strain). The experiment in a line: flow cytometry on cells.
The target of test [5] is wt MPER peptide of the alanine scan (HIV-1 HXB2, UniProt P04578). The experiment in a line: SPR.

The source of these data is publication PMC3253551 (Nature structural & molecular biology, 2011).

B1: 2F5 Fab, wild type (Fab, V domains shown)
VH: RITLKESGPPLVKPTQTLTLTCSFSGFSLSDFGVGVGWIRQPPGKALEWLAIIYSDDDKRYSPSLNTRLTITKDTSKNQVVLVMTRVSPVDTATYFCAHRRGPTTLFGVPIARGPVNAMDVWGQGITVTISS
VL: ALQLTQSPSSLSASVGDRITITCRASQGVTSALAWYRQKPGSPPQLLIYDASSLESGVPSRFSGSGSGTEFTLTISTLRPEDFATYYCQQLHFYPHTFGGGTRVDVR
As for B1, in test [1], the binding result is “binds”.

B2: 2F5m L100AS F100BS monoclonal antibody (antibody, V domains shown)
VH: RITLKESGPPLVKPTQTLTLTCSFSGFSLSDFGVGVGWIRQPPGKALEWLAIIYSDDDKRYSPSLNTRLTITKDTSKNQVVLVMTRVSPVDTATYFCAHRRGPTTSSGVPIARGPVNAMDVWGQGITVTISS
VL: ALQLTQSPSSLSASVGDRITITCRASQGVTSALAWYRQKPGSPPQLLIYDASSLESGVPSRFSGSGSGTEFTLTISTLRPEDFATYYCQQLHFYPHTFGGGTRVDVR
By Kd is commonly meant the free concentration of one partner at which half of the binding sites on the other are occupied at equilibrium, for simple one-to-one binding. Read a high Kd as weaker binding. Take B2: in test [2], binding was put at a Kd of 0.476 µM. Further, the binding result in test [3] is listed as “binds”. The “% of cells stained” value in test [4] was 3.9 % of cells stained.

B3: 2F5m F100BS monoclonal antibody (antibody, V domains shown)
VH: RITLKESGPPLVKPTQTLTLTCSFSGFSLSDFGVGVGWIRQPPGKALEWLAIIYSDDDKRYSPSLNTRLTITKDTSKNQVVLVMTRVSPVDTATYFCAHRRGPTTLSGVPIARGPVNAMDVWGQGITVTISS
VL: ALQLTQSPSSLSASVGDRITITCRASQGVTSALAWYRQKPGSPPQLLIYDASSLESGVPSRFSGSGSGTEFTLTISTLRPEDFATYYCQQLHFYPHTFGGGTRVDVR
In test [2], B3 showed a Kd of 0.097 µM. The binding result in test [5] and in test [3] was “binds” in each case. The “% of cells stained” value in test [4] is 12 % of cells stained.

B4: 2F5 broadly neutralizing monoclonal antibody, wild type (antibody, V domains shown)
VH: RITLKESGPPLVKPTQTLTLTCSFSGFSLSDFGVGVGWIRQPPGKALEWLAIIYSDDDKRYSPSLNTRLTITKDTSKNQVVLVMTRVSPVDTATYFCAHRRGPTTLFGVPIARGPVNAMDVWGQGITVTISS
VL: ALQLTQSPSSLSASVGDRITITCRASQGVTSALAWYRQKPGSPPQLLIYDASSLESGVPSRFSGSGSGTEFTLTISTLRPEDFATYYCQQLHFYPHTFGGGTRVDVR
In the case of B4, binding in test [2] was characterised by a dissociation constant (Kd) of 0.0031 µM. Also, the binding result in test [5] and in test [3] was “binds” in each case. Further, the “% of cells stained” value in test [4] was 36 % of cells stained.

B5: 2F5m I100FS monoclonal antibody (antibody, V domains shown)
VH: RITLKESGPPLVKPTQTLTLTCSFSGFSLSDFGVGVGWIRQPPGKALEWLAIIYSDDDKRYSPSLNTRLTITKDTSKNQVVLVMTRVSPVDTATYFCAHRRGPTTLFGVPSARGPVNAMDVWGQGITVTISS
VL: ALQLTQSPSSLSASVGDRITITCRASQGVTSALAWYRQKPGSPPQLLIYDASSLESGVPSRFSGSGSGTEFTLTISTLRPEDFATYYCQQLHFYPHTFGGGTRVDVR
On to B5, for which the affinity in test [2], expressed as Kd, was 0.028 µM. For the same molecule, the binding result in test [5] and in test [3] was “binds” each time. Further, the “% of cells stained” value in test [4] was 20 % of cells stained.
